Laboratory results as given in patent US20240391959A1 (Bicycle, published 2024).
Starred links: 1 amine or outer side, 2 acyl side, 3 side chain; linkers in the order of their positions; H or OH if unused. Positions of bridges follow the written chain, without caps; N, C: chain ends. No end group written: not given here. TATB = O=C(C[*:1])N1CN(C(=O)C[*:2])CN(C(=O)C[*:3])C1

Tests used:
[1] = molecular target: T1, Recombinant cynomolgus transferrin receptor 1 (TfR1), His6-tagged, a.a. 89-760 (cynomolgus, UniProt H9EXL1 89-760 (rhesus entry)); test: SPR, TfR1 on chip; Table 2, geomean of n = 2
T1 construct: range 89-760; Bought, ACRO Biosystems TFR-C524a; also called Cyno TfR1; Cynomolgus TfR1; not shown: His6 tag
T1 sequence (chain, as listed by the source): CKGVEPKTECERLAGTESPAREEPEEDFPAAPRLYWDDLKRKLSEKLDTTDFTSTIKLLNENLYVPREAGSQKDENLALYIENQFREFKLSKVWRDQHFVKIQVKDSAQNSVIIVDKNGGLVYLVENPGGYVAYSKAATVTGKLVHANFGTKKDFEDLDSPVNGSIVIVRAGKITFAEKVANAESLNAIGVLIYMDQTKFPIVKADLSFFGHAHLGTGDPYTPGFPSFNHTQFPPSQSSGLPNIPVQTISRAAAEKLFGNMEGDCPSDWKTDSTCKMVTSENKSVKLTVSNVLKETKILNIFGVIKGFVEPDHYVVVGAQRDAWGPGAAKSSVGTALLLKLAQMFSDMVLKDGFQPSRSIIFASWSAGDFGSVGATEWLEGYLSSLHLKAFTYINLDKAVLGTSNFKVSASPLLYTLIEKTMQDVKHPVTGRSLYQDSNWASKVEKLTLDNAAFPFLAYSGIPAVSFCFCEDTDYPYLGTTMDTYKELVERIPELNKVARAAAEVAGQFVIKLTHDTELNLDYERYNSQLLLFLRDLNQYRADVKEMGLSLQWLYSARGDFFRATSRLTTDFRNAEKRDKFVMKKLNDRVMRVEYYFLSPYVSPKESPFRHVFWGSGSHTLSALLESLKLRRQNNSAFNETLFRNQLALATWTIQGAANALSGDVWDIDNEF

[2] = molecular target: T2, Recombinant human transferrin receptor 1 (TfR1), His6-tagged, a.a. 89-760 (human, UniProt P02786 89-760); test: SPR, TfR1 on chip; Table 2, geomean of n = 5
T2 construct: range 89-760; SPR used ACRO Biosystems CD1-H5243 (His6, a.a. 89-760); also called Human TfR1; CD71; not shown: His6 tag
T2 sequence (P02786 89-760 limits assumed): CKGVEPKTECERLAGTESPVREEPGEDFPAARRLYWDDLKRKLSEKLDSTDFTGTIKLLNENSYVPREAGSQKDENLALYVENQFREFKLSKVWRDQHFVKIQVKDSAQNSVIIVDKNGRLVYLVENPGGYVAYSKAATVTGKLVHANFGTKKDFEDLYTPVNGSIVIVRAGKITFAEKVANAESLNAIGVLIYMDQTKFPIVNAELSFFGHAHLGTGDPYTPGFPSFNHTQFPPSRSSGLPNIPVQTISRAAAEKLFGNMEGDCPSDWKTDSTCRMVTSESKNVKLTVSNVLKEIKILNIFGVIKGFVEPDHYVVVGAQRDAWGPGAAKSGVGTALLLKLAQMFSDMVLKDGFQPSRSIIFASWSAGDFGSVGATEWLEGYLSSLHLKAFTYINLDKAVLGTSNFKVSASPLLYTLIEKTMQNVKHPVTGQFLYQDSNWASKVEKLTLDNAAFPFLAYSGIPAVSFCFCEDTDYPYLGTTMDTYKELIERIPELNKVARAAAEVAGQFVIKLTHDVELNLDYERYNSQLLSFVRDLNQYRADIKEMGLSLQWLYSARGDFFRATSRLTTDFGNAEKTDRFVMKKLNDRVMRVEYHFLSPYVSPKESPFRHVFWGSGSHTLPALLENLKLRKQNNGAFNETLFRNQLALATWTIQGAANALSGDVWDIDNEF

**Q.** How did the Kd [1] turn out when ACPPDSWQGCISYCA (Cys Ci, Cii, Ciii on TATB scaffold) [BCY13989] was run?
**A.** The Kd was 3440 nM.

**Q.** Which Kd [2] does the source give for ACSPDAHLGCISYCA (linker 2-10-14 via TATB) [BCY15468] here?
**A.** The Kd was 37.8 nM.
